Stoichiometry N data for one substance are collected here from PMC5519370.

This test addresses TgSPT1 Δ158 (Toxoplasma gondii serine palmitoyltransferase 1 with an N-terminal deletion of 158 amino acids) (Toxoplasma gondii). Description: SAXS (small-angle X-ray scattering); size exclusion chromatography HPLC mode, Beamline B21 Diamond Light Source; sample concentrated to ~5 mg/ml; Porod volume 150387 Å^3 equivalent to 94 kDa; ab initio envelope compared with a homodimeric homology model. For orientation: SEC sorts molecules by how far they enter the pores of the column.

By stoichiometry N is commonly meant a count of units in the complex or per binding partner. Regarding “TgSPT1 Δ158 (Toxoplasma gondii serine palmitoyltransferase 1 with an N-terminal deletion of 158 amino acids) (enzyme)”, the stoichiometry N was determined as 2.
